From the nanobody polyreactivity screen of Harvey et al. (2022)

Experiment: yeast display, Sf9 membrane polyspecificity reagent, FACS + sequencing; frameworks hold sequencing errors
Procedure, shortened: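 A nanobody's polyreactivity label depends on the gate it was sorted from. Yeast display cells were stained with 10% biotinylated, detergent-solubilized Sf9 membrane reagent for 1 hour at 4 °C, enriched on streptavidin microbeads and sorted by FACS. The low and high (top ~1%) gates were set on anti-HA fluorescence for expression and streptavidin fluorescence for reagent binding.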

Sequence | polyreactivity (PSR sort gate)
QVQLVESGGGLVQAGGSLRLICAAYGSTFKQYAMGWYRPAPGKERELVAAITRGGRTYYADSVKGRFTISRDNAKNTVYLQMNSLKPEDTAVYYCNAQSWRRYGHFYYWGQGTQVTVSS | high polyreactivity
QVQLVESGGGLVQAGGSLRLICADSGRIFRYNSRGWYRQAPAKERELVASISTGGSSTYYADSVKGRFTISRDNAKNTVYLQMNSLKPEYSAFYYCAATPYSYSARSYGPIYRYDYWGQGTQVTVSS | high polyreactivity
QVQLVESGGGLVQAGGSLRLICDASGSTFAVYTMGLYIQAPGTEREFVAAISSTGTCTYYADSVKGRFTISRDHAKNTVYLQKNSLKPEDTAVYYCAARWLGYRISYDYWGQGTQVTVSS | high polyreactivity
QVQLVESGGGLVQAGGSLRLICGASGSTFQVNAMGWYRQGPGKERELVASISGGSSTNYADSVKGRFTISRDNAKNTVYLQMNSLKPEDTAVYYCAAYYLSGLRVAYDYWGQGTQVTVSS | low polyreactivity
QVQLVESGGGLVQAGGSLRLICPASGRTFQYYAMGWYRQAPGKERELVAAIDDSDGDTYYADSVKGRFTISRDYATNTVYLQMISLKPEDTAVYYCAAVDGWTYTGSDYWGQGTQVTVSS | low polyreactivity
QVQLVESGGGLVQAGGSLRLICSASGLISRINAMGWYRQAPGKERELVAAISSGGSTNYADSVKGRFTISRDNAKNTVYLQMNSLKPEDTAVYYCAAEVFRVAWYDYWGQGTQVTVSS | high polyreactivity
QVQLVESGGGLVQAGGSLRLISAASGFIFLFYAMGWYRQAPGKERELVAAISSGVSTNYADSVKGRFTISRDNAKNTVYLQMNCLKPEDTAVYYCTTTQSTSLLYDYWGPGTQVTVSS | low polyreactivity
QVQLVESGGGLVQAGGSLRLISAASGSTFKIYAMGWYRQAPGKERELVAAITWSGGSTYYADSVKGRFTISRDNAKNTVYLQMNSLKPEDPAVYYCAAVQTYSRYYYWGQGTQVTVSS | high polyreactivity
QVQLVESGGGLVQAGGSLRLNCAASGSIFDDYAMGWYRQAPGKERELVAAINIRTGSTYYADSVKGRFTISRDNAKNTVYLQMNSLKPEDTAVYYCNRVVRGFVRHLDYWGQGTQVTVSS | low polyreactivity
QVQLVESGGGLVQAGGSLRLNCAASGSIFVLYAMGWYRQAPRKERELVAAIRSTGSTNYADSVKGRFTISRDNAKNTVYLQMNSLKPEDTAVYYCAAYRRRTYAVNKEGGYWGQGTQVTVSS | high polyreactivity
QVQLVESGGGLVQAGGSLRLNCAASGSTFGRNAKGWYRQAPGKERELVAAISLSTGSTYDADSVKGRFTISRDNAKNTVYLQMNSLKPEDTAVYYCAKEWGHPYHFLYYYWGQGTQVTVSS | high polyreactivity
QVQLVESGGGLVQAGGSLRLNCAASGSTFGYYAMGWYRQAPGKQRELVAAITSGASTNYADSVKGRFTISRDNAKNTVYLLMNSLKPEDTAVYYCSAGFQTRTPLNEFDYWGQGTQVTVSS | low polyreactivity
QVQLVESGGGLVQAGGSLRLRCAAAGSIFKLNAMGWYRQAPGKERELVAVIYKSAGRTYYADSVKGRFTISRDNAKNTVYLQMNSLKTEDTAVYYCNAVSKLAVNLDYWGQGTQVTVSS | high polyreactivity
QVQLVESGGGLVQAGGSLRLRCAASGFIFAWDAMGWYRQAPGKERELVATISGSGGRTYYADSVKGRFPISRDNAKNTVYLQMISLKPEETAVYYCATRAQGTSWYRTSKYDYWGQGTQVIVSS | high polyreactivity
QVQLVESGGGLVQAGGSLRLRCAASGFIFIFNAMGWYRQAPGKERELVAAIDTSDDSTYYADSVKGRFTISRDNAKNTVYLQMNSLKPEDTAVYYCAAEELSNYEYWGQGTQVTVSS | low polyreactivity
QVQLVESGGGLVQAGGSLRLRCAASGFIFPQYAMGWYRQAPGKEREKVAAISWSGTRTYYADSVKGRFTISRDNAKNTVYLQMNSLKPEDTADYYCAARIDRQYRWTGFGYWGQGTQVTVSS | high polyreactivity
QVQLVESGGGLVQAGGSLRLRCAASGFTFDLYAMGWYRQAPGKERELVAAISWSGGSTRYADSVKGRFTISRDNAKNTVYLQMNSLKPEDTAVYYCAKPVLVGLGSRYDYWGQGTQVTVSS | high polyreactivity
QVQLVESGGGLVQAGGSLRLRCAASGFTFYRKAMGWYRHAHGKERELVAAITRGGSTTYADSVKGRFTISRDNAKNTVYLQMNSLKPEDTAVYYCAVPQYLYLQAGHGYRYYYWGQGSQVTVSS | high polyreactivity
QVQLVESGGGLVQAGGSLRLRCAASGGIFGYYAMGLYRQAPGKERDFVAAITLSGGRTYYADSVKGRFTISRDNAKNTVYLQMNSLKPEDTAVYYCAAKGTRRGKERNYWGQGTQVTLSS | high polyreactivity
QVQLVESGGGLVQAGGSLRLRCAASGGTFRYNAMGWYRQAPGKERELVAAISSSGGSTYYADSVKGRFTISRDNAKNTVYLQMNSLKPEDTAVYYCAAKRRRYVELDYWGQGTQVTVSS | high polyreactivity
QVQLVESGGGLVQAGGSLRLRCAASGITLAGYVMGWYRQAPGKERELVADISSSGDSTYYADSVKGRFTISRDNAKNTVYLQMNSLKPEDTAVYYCNADQVWWSFDRVLVGYEYWGQGSQVTVSS | low polyreactivity

Sequence | polyreactivity (PSR sort gate)
QVQLVESGGGLVQAGGSLRLRCAASGLIFITYAMGRYRQAPGKERELVATITLRGGSTYYADSVKGRFTISRDNAKNTVYLQMNSLKPEDTAVYYCNADSIYYGYDYWGQGTQVTVSS | low polyreactivity
QVQLVESGGGLVQAGGSLRLRCAASGLIFPYYAMGWYRQAPGKERELVAGITSDGSTNYADSVKGRFTLSRDNAKNTVYLQMNSLKPEDTAVYYCNARGVYFWWRLDYWGQGTQVTVSS | low polyreactivity
QVQLVESGGGLVQAGGSLRLRCAASGRIFAPYAMGRYRQAPWKERELVAAIDGSGGSTYYADSVKGRFTISRDNAKNTVYLQMNSLKPEDTAVYYCANRGYYRSQRWYGYWGQGTQVTVSS | high polyreactivity
QVQLVESGGGLVQAGGSLRLRCAASGRIFKSYAMGWYRQAPGKERELVAAINWSGGSTYYADSVKGRFTISRDNAKNTVYLQMNSLKPEDTAVYYCNALYAVRSYDSWGQGTQVTVSS | high polyreactivity
QVQLVESGGGLVQAGGSLRLRCAASGRIFREYAMGWYRQAPGKERELVAAITASGGGTYYADSVKGRFTISRDNAKNTVYLQMNSLKPEDTAVYYCAARYSSRTRNDYWGQGTQVTVSS | low polyreactivity
QVQLVESGGGLVQAGGSLRLRCAASGRIFTRNDIGWYRQAPGKERQLVAAISHSGGSTYADSVKGSFTISRDNAKNTVFLQMNRLKPEDTEVYYCAADSPYGYYEGDYWGQGTQVTVSS | low polyreactivity
QVQLVESGGGLVQAGGSLRLRCAASGRIFTTYAMVWYRQAPGKERELVADITTGGGTYYADSVKGRFTISRDNAKNTVYLQMNSLKPEDTAVYYCNADYSADYYWYYYWGQGTQVTVSS | low polyreactivity
QVQLVESGGGLVQAGGSLRLRCAASGRIVYWYAMGWYIQAPGKERELVATINQSGSSTYYADSVKGRFTISRDNAKNTVYLQMNSLKPEDTAVYYCARARSHYAYYWWNAGTGLDYWGQGTQVTVSS | high polyreactivity
QVQLVESGGGLVQAGGSLRLRCAASGRTFAINALGWYRQAPGKEREDVASITTSGGRTYYADSVKGRFTISRDNAKNTVYLQMNSLKPEDTAVYYCNAGSYVGSWRFPYYYWGQGTQVTVSS | high polyreactivity
QVQLVESGGGLVQAGGSLRLRCAASGRTFKRKAMGWYRQAPGKEREFVAVITGSGGSTYYADSVKGRFTISRDNAKNTVYLQMNSLKPEDTAVYYCAAALGLRSTSWGRRGGGGVYWGQGTQVTVSS | high polyreactivity
QVQLVESGGGLVQAGGSLRLRCAASGRTFKVYAMGWYRQAPGKERELVAAISYSGAGTRYADSVKGRFTISRDNAKNTVYLQMNSLKPEDTAVYYCNTDAWARVKRYEYWGQGTQVTVSS | low polyreactivity
QVQLVESGGGLVQAGGSLRLRCAASGRTFSGYAMGWYRQAPGKERELVAAITSGGNTYYADSVKGRFTISRDNAKNTVYLQMNSLKPEDTAVYYCAVVDYLWLLQLWLSDYWGQGTQVTVSS | low polyreactivity
QVQLVESGGGLVQAGGSLRLRCAASGRTFYSHTMGWYRQAPGKERELVAAIDWSGGRTYYADSVKGRFTISRDNAKNTVYLQMNSLKPEDTAVDYCNTVGYTRRLRSGGYWGQGTQVTVSS | high polyreactivity
QVQLVESGGGLVQAGGSLRLRCAASGSIFAHYTMGWYRQAPGKERELVAVISRSGARTYYADSVKGRFTISRDNAKNTVYLQMNSLKPEDTEVYYCAADRTLEEDYWGQGTQVTVSS | low polyreactivity
QVQLVESGGGLVQAGGSLRLRCAASGSIFFFYAMGWYRQAPGKERELVAAISKSPSSTYYADSVKGRFTISRDNAKNTVYLQMNSLKPEDTAVYYCNNGYSGIQYYYWGHGTQVTVSS | low polyreactivity
QVQLVESGGGLVQAGGSLRLRCAASGSIFHSYAMAWYSQAPGKEREMVASITASVDSTYYADSVKGRFTISRDNAKNTVYLQMNSLIPEDTAVYYCAAEAQFNFYSYDFWGQGTQVTVSS | low polyreactivity
QVQLVESGGGLVQAGGSLRLRCAASGSIFKSNAMGWYRQAPGKERELVAAISNGGITNYADSVKGRFTISRDNAKNTVYLQMNSLKPEDTAVYYCATSDVREIWVDYCGQGTQVTVSS | low polyreactivity
QVQLVESGGGLVQAGGSLRLRCAASGSIFLVNALGWYRQAPGKEWELVASITWRGGRTYYADSVKGRFTISRDTAKKTVYLQMNRLKPADTAVYYCSALNYRTGERLRYDYWGQGTQVTVSS | low polyreactivity
QVQLVESGGGLVQAGGSLRLRCAASGSIFNSYAMGWYRQAPGKERELVPAISRRGGSTYYADSVKGRFTISRDNAKNTVYLQMHSLKPEDTAVYYCNATRPRLTYLGVGYGYDYWGQGTQVTVSS | high polyreactivity
QVQLVESGGGLVQAGGSLRLRCAASGSIFSGNAMGWYRQAPGKESELVAAISVNGGRTYYADSVKGRFTISRDNAKNTVSLQMNSLKPEDTAVYYCNAVTKVVYHGPYGYDYWGQGTQVTVSS | high polyreactivity
